The results in this text go back to paper PMC9124873 (BioImpacts : BI, 2021).

The target of assay [1] is light chain of ranibizumab. As to the kind of experiment: ELISA.
Assay [2] deals with heavy chain of ranibizumab. As to the kind of experiment: ELISA.

B1: recombinant human VEGF-A protein (ligand)
chain: APMAEGGGQNHHEVVKFMDVYQRSYCHPIETLVDIFQEYPDEIEYIFKPSCVPLMRCGGCCNDEGLECVPTEESNITMQIMRIKPHQGQHIGEMSFLQHNKCECRPKKDRARQENPCGPCSERRKHLFVQDPQTCKCSCKNTDSRCKARQLELNERTCRCDKPRR
Consider B1, for which the binding result in assay [1] and in assay [2] was “no binding” in each case.
